Test results from patent EP3440111B1 (Fondazione Luigi Maria Monti, dated 2023).

Tests used:
[1] = target: T1, chimeric protein rhVEGFR-1/Fc (human, UniProt P17948 27-758); experiment: Western blotting
T1 construct: extracellular domain;domain: Fc region; Bought from R&D Systems; also called sVEGFR-1/Fc; not shown: Fc region of human immunoglobulins

[2] = target: T2, sVEGFR-1 (soluble VEGFR-1) (Homo sapiens (Human), UniProt P17948 27-656); experiment: ELISA on plates coated with a soluble form of VEGFR-1
T2 construct: Bought from RELIATech; also called soluble form of VEGFR-1
T2 sequence (P17948 other isoform, or with tags, fused parts or gaps limits assumed): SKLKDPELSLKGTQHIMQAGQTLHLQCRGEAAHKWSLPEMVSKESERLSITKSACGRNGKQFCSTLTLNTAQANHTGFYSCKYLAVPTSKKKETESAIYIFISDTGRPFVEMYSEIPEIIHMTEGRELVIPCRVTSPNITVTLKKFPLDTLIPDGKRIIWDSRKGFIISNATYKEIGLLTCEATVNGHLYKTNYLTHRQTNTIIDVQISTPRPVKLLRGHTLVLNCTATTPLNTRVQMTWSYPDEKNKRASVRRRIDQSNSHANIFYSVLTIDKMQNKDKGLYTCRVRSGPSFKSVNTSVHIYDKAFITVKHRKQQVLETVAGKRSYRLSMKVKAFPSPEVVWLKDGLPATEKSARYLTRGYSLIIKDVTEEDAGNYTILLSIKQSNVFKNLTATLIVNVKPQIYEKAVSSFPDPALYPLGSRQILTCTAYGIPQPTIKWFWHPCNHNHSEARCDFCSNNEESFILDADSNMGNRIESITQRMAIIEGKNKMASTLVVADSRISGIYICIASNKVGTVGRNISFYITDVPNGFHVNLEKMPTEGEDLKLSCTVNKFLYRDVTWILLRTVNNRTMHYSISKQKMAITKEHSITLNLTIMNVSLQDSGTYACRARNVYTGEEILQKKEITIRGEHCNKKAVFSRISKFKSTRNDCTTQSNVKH

T1 sequence (P17948 27-758, stated change not applied): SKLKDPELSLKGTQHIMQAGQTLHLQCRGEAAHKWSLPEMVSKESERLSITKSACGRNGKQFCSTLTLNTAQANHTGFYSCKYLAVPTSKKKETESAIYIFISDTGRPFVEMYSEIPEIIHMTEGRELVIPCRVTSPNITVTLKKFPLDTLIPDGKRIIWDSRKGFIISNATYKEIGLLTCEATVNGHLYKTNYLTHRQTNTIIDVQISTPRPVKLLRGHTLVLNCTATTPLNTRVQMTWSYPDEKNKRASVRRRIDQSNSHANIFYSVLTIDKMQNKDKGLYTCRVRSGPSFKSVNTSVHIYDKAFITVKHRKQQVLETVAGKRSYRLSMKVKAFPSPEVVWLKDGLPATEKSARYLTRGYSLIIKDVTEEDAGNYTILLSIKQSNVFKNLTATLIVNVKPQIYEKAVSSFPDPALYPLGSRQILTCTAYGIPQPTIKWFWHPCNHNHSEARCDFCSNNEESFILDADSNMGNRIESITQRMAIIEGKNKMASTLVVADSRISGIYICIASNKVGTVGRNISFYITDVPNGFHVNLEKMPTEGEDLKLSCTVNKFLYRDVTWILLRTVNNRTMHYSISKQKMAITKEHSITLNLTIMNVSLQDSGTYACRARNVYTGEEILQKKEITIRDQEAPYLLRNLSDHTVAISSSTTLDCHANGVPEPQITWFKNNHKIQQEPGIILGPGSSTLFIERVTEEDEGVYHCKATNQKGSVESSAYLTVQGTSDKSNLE

B1: monoclonal antibody D16F7 (antibody, V domains shown)
VH: QVQLQQPGSELVRPGASVKLSCKASGYIFTNYWMHWVKQRPGQGLEWIGEIYPRNGNTNYDEKFKGKATLTIDTSSSTAYMQLSSLTSEDSAVYYCATYLGDYWGQGTTLTVSS
VL: DVLMTQTPLSLPVSLGDQASISCRSSQSIVHSNGNTYLEWFLQKPGQSPKLLIYKVSNRFSGIPDRFSGSGSGTDFTLKISRVEAEDLGVYFCFQGSHVPYTFGGGTKLEIK
notes: Mouse IgG1 from a hybridoma (BALB/c mice immunized with peptide A4 as a MAP); also called D16F7 mAb; mAbD16F7
B1: binds [1]; binds [2].
